The values that follow come from patent publication US20230212235A1.

A word on the Kd: it is the free concentration of one partner at which half of the binding sites on the other are occupied at equilibrium, for simple one-to-one binding. A lower Kd goes with a tighter complex. What is called koff is the rate constant with which the complex falls apart. A high value points to a short-lived complex. For orientation: kon means the rate constant with which the complex forms. A higher kon goes with faster complex formation.

Assay [1] deals with GFP [GFP: P42212]. Nature of the assay: SPR, GFP immobilised, nanobody injected; equilibrium Kd. (In general: In SPR one partner is held on a chip, and binding of the other changes the refractive index at the surface.)
The target of assay [2] is GFP [GFP: P42212]. As to the kind of experiment: SPR, GFP immobilised; order of magnitude told of all four nanobodies.
For assay [3], the target named is GFP [GFP: P42212]. Nature of the assay: SPR, GFP immobilised, nanobody injected; kinetic Kd.

With “GBN^WT (wild-type GFP-binding nanobody) (VHH)”, in the assay with GFP [GFP: P42212] [1], the equilibrium dissociation constant (Kd) amounted to 233 nM. In the assay with GFP [GFP: P42212] [2], this substance returned a dissociation rate constant (koff) of 0.0001 s⁻¹ and a kon of 10000 M⁻¹ s⁻¹. This substance also showed an equilibrium dissociation constant (Kd) in the assay with GFP [GFP: P42212] [3] of 18.9 nM.
